These results are taken from the supplement of paper PMC6755084.

B1: F1*; the commonest letter at each place (parent)
chain: GAGACCGCAACTGAAAAGTTGTTATCACTTGTCGTAAGACACTTTGGATGGGTTGAAGTTCTGCACGTAGAAGCAAAAGGC

Variants of B1 are the subject of the series. The series can be described thus: fraction ligated after 30 min (ligated reads / total reads); higher = more ligase activity. Conditions: with F1*sub RNA substrate (template-directed ligation), 42 °C. The method, boiled down:
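Oligo-pool templates of ligase ribozyme variants were PCR-amplified, T7-transcribed and gel-purified. Ligated and unligated bands were gel-separated, reverse transcribed with barcoded primers, and MiSeq-sequenced; core bases were filtered at quality ≥20. Fraction ligated per variant was ligated reads over total reads.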
Regarding GAGACCGCAACTGAAAAGTTGTTATCACTTGTCGTAAAACACTTTGGATGGGTTCAAGTTCTGCACGTAGAAGCAAAAGGC [G38A G55C], the fraction ligated was found to be 0.781.

As to GAGACCGCAACTGAAAAGTTGTTATCAGTTGTCGTAAGACACTTTGGGTGGGTTGAAGTTCTGCACGTAGAAGCAAAAGGC [C28G A48G], the fraction ligated came out at 0.751.

As for GAGACCGCAACTGAAAAGTTGTTAACACTTGTCGTAAGACACATTGGATGGGTTGAAGTTCTGCACGTAGAAGCAAAAGGC [T25A T43A], the fraction ligated came to 0.463.

For the variant GAGACCGCAACTGAAAAGTTGTTATCACCTGTCCTAAGACACTTTGGATGGGTTGAAGTTCTGCACGTAGAAGCAAAAGGC [T29C G34C], the fraction ligated was 0.793.

With GAGACCGCAACTGAAAAGTTGTTATCACTTGTCGCAAGATACTTTGGATGGGTTGAAGTTCTGCACGTAGAAGCAAAAGGC [T35C C40T], the fraction ligated is 0.862.

With GAGACCGCAACTGAAAAGTTGTTATCACTGGGCGTAAGCCCCTTTGGATGGGTTGAAGTTCTGCACGTAGAAGCAAAAGGC [T30G T32G A39C A41C], the fraction ligated was determined as 0.845.

Regarding GAGACCGCAACTGAAAAGTTGTTATCACTGGTCTTAAGACACTTTGGATGGGTTGAAGTTCTGCACGTAGAAGCAAAAGGC [T30G G34T], the fraction ligated amounted to 0.796.

In the case of GAGACCGCAACTGAAAAGTTGTTATCACTCGTCGTAAGACACTTTGGATTGGTTGAAGTTCTGCACGTAGAAGCAAAAGGC [T30C G50T], the fraction ligated came to 0.452.

Regarding GAGACCGCAACTGAAAAGTTGTTAACACTTGTCGTAAGACACTTTGGATTGGTTGAAGTTCTGCACGTAGAAGCAAAAGGC [T25A G50T], the fraction ligated worked out at 0.536.

GAGACCGCAACTGAAAAGTTGTTATCACTGGTCGTAAGACGCTTTGGATGGGTTGAAGTTCTGCACGTAGAAGCAAAAGGC [T30G A41G]: the fraction ligated was 0.84.

Consider GAGACCGCAACTGAAAAGTTGTCATCACTTGTCGTCAGACACTTTGGATGGGTTGAAGTTCTGCACGTAGAAGCAAAAGGC [T23C A36C], for which the fraction ligated is 0.828.

For the variant GAGACCGCAACTGAAAAGTTGTTATTACTTGTCGTAAAACACTTTGGATGGGTTGAAGTTCTGCACGTAGAAGCAAAAGGC [C26T G38A], the fraction ligated turned out to be 0.823.

With GAGACCGCAACTGAAAAGTTGTTACCACTGGTCGTAAGACACTTTGGATGGGTTGAAGTTCTGCACGTAGAAGCAAAAGGC [T25C T30G], the fraction ligated amounted to 0.162.

As to GAGACCGCAACTGAAAAGTTGTTATCTCATGTCGTAAGACACTTTGGATGGGTTGAAGTTCTGCACGTAGAAGCAAAAGGC [A27T T29A], the fraction ligated is 0.803.

With GAGACCGCAACTGAAAAGTTGTTATCACTCGTCGTAAGACACTTTGGATGGGTTGCAGTTCTGCACGTAGAAGCAAAAGGC [T30C A56C], the fraction ligated was 0.763.

Consider GAGACCGCAACTGAAAAGTTGTGATCACTTGTCGTAAGACACTTCGGATGGGTTGAAGTTCTGCACGTAGAAGCAAAAGGC [T23G T45C], for which the fraction ligated stood at 0.781.

Consider GAGACCGCAACTGAAAAGTTGTTATCACTTGACGTCAGACACTTTGGATGGGTTGAAGTTCTGCACGTAGAAGCAAAAGGC [T32A A36C], for which the fraction ligated came out at 0.815.

With GAGACCGCAACTGAAAAGTTGTTATCACTAGTCGTAAGACACTTTGGATGGGTTGACGTTCTGCACGTAGAAGCAAAAGGC [T30A A57C], the fraction ligated turned out to be 0.778.

As for GAGACCGCAACTGAAAAGTTGTTATCACTAGTCGTAATACACTTTGGATGGGTTGAAGTTCTGCACGTAGAAGCAAAAGGC [T30A G38T], the fraction ligated was determined as 0.832.

GAGACCGCAACTGAAAAGTTGTTATCACTTCTCGTCAGACACTTTGGATGGGTTGAAGTTCTGCACGTAGAAGCAAAAGGC [G31C A36C]: the fraction ligated is 0.357.

As for GAGACCGCAACTGAAAAGTTGTTATCACTTGTCGTAAGACCTTTTGGATGGGTTGAAGTTCTGCACGTAGAAGCAAAAGGC [A41C C42T], the fraction ligated was 0.812.

Turning to GAGACCGCAACTGAAAAGTTGTTATCACTTGGCGTAAGCCACTTTGGATGGGTTGAAGTTCTGCACGTAGAAGCAAAAGGC [T32G A39C], the fraction ligated was 0.855.

Regarding GAGACCGCAACTGAAAAGTTGTTTTCTCTTGTCGTAAGACACTTTGGATGGGTTGAAGTTCTGCACGTAGAAGCAAAAGGC [A24T A27T], the fraction ligated was found to be 0.712.

Turning to GAGACCGCAACTGAAAAGTTGTTATCACTTGTCGTAAGACACCTTGCATGGGTTGAAGTTCTGCACGTAGAAGCAAAAGGC [T43C G47C], the fraction ligated is 0.276.

For GAGACCGCAACTGAAAAGTTGTTATCACTTGTCGTAAGACACTTCGCATGGGTTGAAGTTCTGCACGTAGAAGCAAAAGGC [T45C G47C], the fraction ligated was found to be 0.31.

On to GAGACCGCAACTGAAAAGTTGTTATCACTTGTCGTAAGCCACTCTGGATGGGTTGAAGTTCTGCACGTAGAAGCAAAAGGC [A39C T44C], for which the fraction ligated is 0.797.

For the variant GAGACCGCAACTGAAAAGTTGTTATCACTTGTCGTAAGACAATTTGGATGGGTTGACGTTCTGCACGTAGAAGCAAAAGGC [C42A A57C], the fraction ligated is 0.797.

Turning to GAGACCGCAACTGAAAAGTTGTTATCACTTGTCGTAAGACATTTTGGATTGGTTGAAGTTCTGCACGTAGAAGCAAAAGGC [C42T G50T], the fraction ligated was found to be 0.808.

For the variant GAGACCGCAACTGAAAAGTTGTTATCACTTGTCATAAGACATTTTGGATGGGTTGAAGTTCTGCACGTAGAAGCAAAAGGC [G34A C42T], the fraction ligated is 0.865.

In the case of GAGACCGCAACTGAAAAGTTGTTATCACTTGTCGTAAGAAACTTTGGATGGGTTGCAGTTCTGCACGTAGAAGCAAAAGGC [C40A A56C], the fraction ligated came to 0.711.

Turning to GAGACCGCAACTGAAAAGTTGTTATCCCGTGTCGTAAGACACTTTGGATGGGTTGAAGTTCTGCACGTAGAAGCAAAAGGC [A27C T29G], the fraction ligated is 0.797.

Turning to GAGACCGCAACTGAAAAGTTGTTATCACTTGTCGTAAAACACTTTAGATGGGTTGAAGTTCTGCACGTAGAAGCAAAAGGC [G38A G46A], the fraction ligated is 0.805.

Take GAGACCGCAACTGAAAAGTTGTTATCACTTGTCGGAAGACACTTCGGATGGGTTGAAGTTCTGCACGTAGAAGCAAAAGGC [T35G T45C]: the fraction ligated turned out to be 0.747.

As for GAGACCGCAACTGAAAAGTTGTTATCACTTGTCGTAAGACACTTAGTATGGGTTGAAGTTCTGCACGTAGAAGCAAAAGGC [T45A G47T], the fraction ligated is 0.205.
